For series [1], the target named is GST-IκB-αN protein (AA), GST-IκB-αN with the No. 32 and No. 36 serine residues replaced by alanine [GST: P08515].
In series [2] the target is GST-IκB-αN protein (WT), amino acids 1-72 of IκB-α fused to GST [GST: P08515].
The target in series [3] is T1, GST-I-TRAF (human I-TRAF as a chimera protein with glutathione S transferase, purified from E. coli), Q92844.
T1 chain: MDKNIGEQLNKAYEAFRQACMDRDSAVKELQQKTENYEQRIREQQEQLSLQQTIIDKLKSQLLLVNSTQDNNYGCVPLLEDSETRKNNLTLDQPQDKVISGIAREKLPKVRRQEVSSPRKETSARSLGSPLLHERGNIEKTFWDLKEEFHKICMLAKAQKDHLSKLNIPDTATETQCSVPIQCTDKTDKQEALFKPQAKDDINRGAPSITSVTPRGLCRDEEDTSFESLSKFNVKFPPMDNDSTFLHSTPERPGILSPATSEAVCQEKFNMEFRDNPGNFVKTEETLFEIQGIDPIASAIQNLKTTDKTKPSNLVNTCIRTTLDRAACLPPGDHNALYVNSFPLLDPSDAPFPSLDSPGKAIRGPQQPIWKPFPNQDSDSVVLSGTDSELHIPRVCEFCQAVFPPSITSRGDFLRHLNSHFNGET

Series [4] concerns the target T2, Myc-I-TRAF (human I-TRAF, full length, with a Myc epitope added to the N-terminal), Q92844.
T2 chain: T1 chain

Series [5] concerns the target Myc-I-TRAF (1-247) defective mutant, human I-TRAF amino acids No. 1-247 with N-terminal Myc, Q92844.

Changes are numbered by the printed parent chain. Names and notes keep the numbering of the source.

B1: Flag-IKK-i (human IKK-i with a Flag epitope linked to the N-terminal) (protein)
chain: MQSTANYLWHTDDLLGQGATASVYKARNKKSGELVAVKVFNTTSYLRPREVQVREFEVLRKLNHQNIVKLFAVEETGGSRQKVLVMEYCSSGSLLSVLESPENAFGLPEDEFLVVLRCVVAGMNHLRENGIVHRDIKPGNIMRLVGEEGQSIYKLTDFGAARELDDDEKFVSVYGTEEYLHPDMYERAVLRKPQQKAFGVTVDLWSIGVTLYHAATGSLPFIPFGGPRRNKEIMYRITTEKPAGAIAGAQRRENGPLEWSYTLPITCQLSLGLQSQLVPILANILEVEQAKCWGFDQFFAETSDILQRVVVHVFSLSQAVLHHIYIHAHNTIAIFQEAVHKQTSVAPRHQEYLFEGHLCVLEPSVSAQHIAHTTASSPLTLFSTAIPKGLAFRDPALDVPKFVPKVDLQADYNTAKGVLGAGYQALRLARALLDGQELMFRGLHWVMEVLQATCRRTLEVARTSLLYLSSSLGTERFSSVAGTPEIQELKAAAELRSRLRTLAEVLSRCSQNITETQESLSSLNRELVKSRDQVHEDRSIQQIQCCLDKMNFIYKQFKKSRMRPGLGYNEEQIHKLDKVNFSHLAKRLLQVFQEECVQKYQASLVTHGKRMRVVHETRNHLRLVGCSVAACNTEAQGVQESLSKLLEELSHQLLQDRAKGAQASPPPIAPYPSPTRKDLLLHMQELCEGMKLLASDLLDNNRIIERLNRVPAPPDV
With B1, the figures for the “in vitro kinase assay ([γ-32P]ATP, 30° C., 20 minutes, SDS-PAGE, autoradiography)” value in series [1] and in series [2] were “IKK-i did not phosphorylate GST-IκB-αN protein (AA)” and “IKK-i phosphorylated GST-IκB-αN protein (WT)”, respectively. Also, the “in vitro kinase assay with purified GST-I-TRAF (1.0 µg) added to the anti-Flag immunoprecipitate” value in series [3] was “in cells in which Flag-IKK-i was expressed, phosphorylation of GST-I-TRAF was observed”. For the same protein, the “in vitro kinase assay ([γ-32P]ATP) on immunoprecipitates” value in series [4] is “Bands of phosphorylated Myc-I-TRAF were detected in both of immunoprecipitates with anti-Flag antibody (lane 2) or anti-Myc antibody (lane 4)”. Also, the “in vitro kinase assay on immunoprecipitates, I-TRAF deletion mutants” value is “phosphorylations of FL (lanes 4 and 8) and Myc-I-TRAF (1-247)(lanes 2 and 6) were confirmed” in series [4]; “phosphorylations of FL (lanes 4 and 8) and Myc-I-TRAF (1-247)(lanes 2 and 6) were confirmed” in series [5].

B2: mutant IKK-i (K38A), Flag-tagged human IKK-i with the No. 38 lysine replaced by alanine (protein)
chain: B1 chain with K38A
B2: the “in vitro kinase assay ([γ-32P]ATP, 30° C., 20 minutes, SDS-PAGE, autoradiography)” value in series [2] is “K38A-IKK-i did not phosphorylate GST-IκB-αN protein (WT)”. The “in vitro kinase assay with purified GST-I-TRAF (1.0 µg) added to the anti-Flag immunoprecipitate” value in series [3] is “No phosphorylation was observed with the K38A mutant”.

These data come from patent US20030059419.
